Reference: article PMC4586043

How the values were obtained:
[1] = biological target: BG505 SOSIP.664 trimer produced in 293S cells (HIV-1 isolate BG505); test: ITC
[2] = biological target: BG505 SOSIP.664 trimer produced in 293S cells, deglycosylated by EndoH (HIV-1 isolate BG505); test: ITC; Auto-iTC200; trimer in the cell at 4.0–5.0 μM, 3BC315 Fab in the syringe at ~20 × the molar concentration of the trimer; single-site binding model
[3] = biological target: His-tagged BG505 SOSIP.664 trimer produced in 293S cells, EndoH-deglycosylated (HIV-1 isolate BG505); test: SPR; Biacore 3000, 25 °C, HBS-EP; His-tagged trimer captured by anti-histidine antibody on CM5 to 500 RU; 3BC315 IgG or Fab titrated down in twofold steps from 1 μM; IgG fitted with a bivalent, Fab with a Langmuir model
[4] = biological target: His-tagged BG505 SOSIP.664 trimer produced in 293T cells (HIV-1 isolate BG505); test: SPR; parameters: kon1: unit not given here
2G12 = test: ELISA; details: read at the highest antibody concentration, 1 µg/ml 2G12, read off a plot
3BC315 Fab = test: ELISA; details: read off a plot
3BC176 IgG = test: ELISA; details: parent: est. 0.92; read off a plot
PGT145 = test: ELISA; details: read at the highest antibody concentration, about 15 µg/ml PGT145; parent: est. 0.87; read off a plot
[5] = biological target: BG505 Env on virus (HIV-1 isolate BG505)
[6] = biological target: JR-FL Env on virus (HIV-1 isolate JR-FL) (UniProt Q75760)

Molecule: 3BC315 Fab
- Kd [1]: 186 nM
- stoichiometry N [1]: 1.17
- Kd [2]: 167 nM
- stoichiometry N [2]: 1.71
- Kd [3]: 7.1 nM
- koff [3]: 0.00059 s⁻¹
- stoichiometry N [3]: 1.9

Molecule: 3BC315 IgG (antibody)
- Kd1 [4]: < 10 nM
- Kd2 [4]: 24 RU
- koff1 [4]: < 1e-05 s⁻¹
- koff2 [4]: 0.0084 s⁻¹
- kon1 [4]: 4900
- kon2 [4]: 0.00034 RUs^−1
- stoichiometry N [4]: 1.1

Molecule: D7324-tagged BG505 SOSIP.664 trimer produced in 293T cells N88Q
- response (2G12; parent: est. 1.2): 1 OD450
- response (3BC315 Fab): 0.98 OD450

Molecule: D7324-tagged BG505 SOSIP.664 trimer produced in 293T cells N625Q; N637Q
- response (3BC315 Fab; read at the highest concentration, 10 µg/ml 3BC315 Fab, parent: est. 1.1): 0.93 OD450

Molecule: D7324-tagged BG505 SOSIP.664 trimer produced in 293T cells W623A
- response (2G12; parent: est. 1.25): 1.2 OD450
- response (3BC176 IgG): 0.4 OD450
- response (PGT145): 0.83 OD450

B1: 3BC176 IgG (antibody, V domains shown)
VH: QVQLMQSGAQLRDPGDSLKISCKASGYNFIDYHIHWVRLAPGRGLEWMGWIDPVGGITKYAGQFQGRLSLTRDTSTNTLFLELSRLTAGDTAVYFCARSMRPVDHGIDYSGLFVFHFWGRGSDVLVSS
VL: QSVLTQPASVSASPGQSITVSCTGSRNDVGGYDFVSWYQRHPGGVPKLIIYEISKRPSGIPQRFSGSRSGNTASLTISGLQDDDEADYYCCSYASYDRLIFGGGTRVSVL
- IC50 of neutralisation of BG505 virus (TZM-bl) after 1, 3, 6 and 22 h pre-incubation with IgG (1.93 falling to 0.33) [5]: 1.93 µg/mL
- IC50 of neutralisation of JR-FL virus (TZM-bl) after 1, 3, 6 and 22 h pre-incubation with IgG (0.30 falling to 0.03) [6]: 0.3 µg/mL

B2: 3BC315 IgG (antibody, V domains shown)
VH: QVQLVQSGAEMKDPGASVKVSCRASGYKFTDYYMHWVRQAPGQGLEWVGWVNTNGGFTKYGAKFQGRVTVTRDTSTNTVFLELSRLTFGDTAMYFCARPMRPVSHGIDYSGLFVFQFWGRGTMVTVSS
VL: QSALTQPASVSASPGQSITISCSGTRSDVGGYDFVSWYQQHPGKVPKLIIYEVTKRPSGIPQRFSGSKSGNTASLTISGLQADDEADYYCCSYANYDKLILGGGTKLTVL
- IC50 of neutralisation of BG505 virus (TZM-bl) after 1, 3, 6 and 22 h pre-incubation with IgG (1.62 falling to 0.41) [5]: 1.62 µg/mL
- IC50 of neutralisation of JR-FL virus (TZM-bl) after 1, 3, 6 and 22 h pre-incubation with IgG (5.84 falling to 0.83) [6]: 5.84 µg/mL
